# Source: US7425614B2, “Neuroprotective therapeutics preventing ERK/MAPK activation through the NMDA receptor” (Children's Medical Center Corporation, priority 2003, dated 2008)
# Experiments:
# [1] = target: T1, NR2B/RasGRF1 native complex (Rattus norvegicus, UniProt P28818+Q00960); assay: competition co-immunoprecipitation of native NR2B-RasGRF1 complexes from rat brain microsomes; type: binding; conditions: NusA fusion proteins 3-5 μM; 6- to 8-week-old rat brains
# T1 construct: from tissue; host or cells: P2 microsomes of 6- to 8-week-old rat brain
# T1 sequence (Q00960 27-1482): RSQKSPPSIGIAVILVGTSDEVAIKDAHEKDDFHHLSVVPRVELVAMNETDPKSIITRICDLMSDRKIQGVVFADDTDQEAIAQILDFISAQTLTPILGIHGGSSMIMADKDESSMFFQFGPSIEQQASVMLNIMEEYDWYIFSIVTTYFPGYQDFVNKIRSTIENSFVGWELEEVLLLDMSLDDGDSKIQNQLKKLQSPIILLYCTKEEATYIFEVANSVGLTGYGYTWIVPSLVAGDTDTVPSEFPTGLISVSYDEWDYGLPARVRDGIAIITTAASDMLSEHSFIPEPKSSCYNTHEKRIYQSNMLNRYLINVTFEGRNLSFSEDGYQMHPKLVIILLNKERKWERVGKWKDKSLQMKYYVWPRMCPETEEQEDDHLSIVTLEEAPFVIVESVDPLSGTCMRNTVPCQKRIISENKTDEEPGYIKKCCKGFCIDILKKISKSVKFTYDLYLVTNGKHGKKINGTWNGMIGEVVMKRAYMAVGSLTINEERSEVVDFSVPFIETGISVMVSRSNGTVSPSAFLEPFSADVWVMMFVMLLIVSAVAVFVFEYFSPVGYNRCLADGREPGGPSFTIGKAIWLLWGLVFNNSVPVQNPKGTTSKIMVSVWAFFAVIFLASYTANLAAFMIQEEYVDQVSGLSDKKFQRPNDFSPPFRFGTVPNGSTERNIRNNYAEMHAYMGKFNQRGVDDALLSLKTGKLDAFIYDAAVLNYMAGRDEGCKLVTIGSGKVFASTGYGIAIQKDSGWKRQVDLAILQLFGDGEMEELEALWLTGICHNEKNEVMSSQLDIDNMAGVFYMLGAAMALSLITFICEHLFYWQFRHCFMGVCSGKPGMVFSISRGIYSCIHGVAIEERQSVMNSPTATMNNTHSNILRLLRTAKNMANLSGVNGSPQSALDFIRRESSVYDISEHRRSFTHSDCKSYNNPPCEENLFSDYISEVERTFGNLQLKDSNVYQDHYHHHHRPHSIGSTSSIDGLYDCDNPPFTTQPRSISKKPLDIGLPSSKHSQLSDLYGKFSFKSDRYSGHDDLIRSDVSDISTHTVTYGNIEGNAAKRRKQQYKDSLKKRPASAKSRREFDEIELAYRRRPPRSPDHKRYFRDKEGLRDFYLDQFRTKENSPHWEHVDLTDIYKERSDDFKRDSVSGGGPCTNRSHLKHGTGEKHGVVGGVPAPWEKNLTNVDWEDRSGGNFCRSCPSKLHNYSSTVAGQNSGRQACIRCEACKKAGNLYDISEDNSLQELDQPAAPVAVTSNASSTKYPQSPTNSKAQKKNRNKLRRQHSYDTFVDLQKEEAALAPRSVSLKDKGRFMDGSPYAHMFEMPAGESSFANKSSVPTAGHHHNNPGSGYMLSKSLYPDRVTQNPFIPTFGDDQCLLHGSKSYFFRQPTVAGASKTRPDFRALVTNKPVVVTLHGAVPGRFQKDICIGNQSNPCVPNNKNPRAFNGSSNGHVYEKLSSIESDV
# T1 sequence (P28818 whole entry, the tested form may be a part): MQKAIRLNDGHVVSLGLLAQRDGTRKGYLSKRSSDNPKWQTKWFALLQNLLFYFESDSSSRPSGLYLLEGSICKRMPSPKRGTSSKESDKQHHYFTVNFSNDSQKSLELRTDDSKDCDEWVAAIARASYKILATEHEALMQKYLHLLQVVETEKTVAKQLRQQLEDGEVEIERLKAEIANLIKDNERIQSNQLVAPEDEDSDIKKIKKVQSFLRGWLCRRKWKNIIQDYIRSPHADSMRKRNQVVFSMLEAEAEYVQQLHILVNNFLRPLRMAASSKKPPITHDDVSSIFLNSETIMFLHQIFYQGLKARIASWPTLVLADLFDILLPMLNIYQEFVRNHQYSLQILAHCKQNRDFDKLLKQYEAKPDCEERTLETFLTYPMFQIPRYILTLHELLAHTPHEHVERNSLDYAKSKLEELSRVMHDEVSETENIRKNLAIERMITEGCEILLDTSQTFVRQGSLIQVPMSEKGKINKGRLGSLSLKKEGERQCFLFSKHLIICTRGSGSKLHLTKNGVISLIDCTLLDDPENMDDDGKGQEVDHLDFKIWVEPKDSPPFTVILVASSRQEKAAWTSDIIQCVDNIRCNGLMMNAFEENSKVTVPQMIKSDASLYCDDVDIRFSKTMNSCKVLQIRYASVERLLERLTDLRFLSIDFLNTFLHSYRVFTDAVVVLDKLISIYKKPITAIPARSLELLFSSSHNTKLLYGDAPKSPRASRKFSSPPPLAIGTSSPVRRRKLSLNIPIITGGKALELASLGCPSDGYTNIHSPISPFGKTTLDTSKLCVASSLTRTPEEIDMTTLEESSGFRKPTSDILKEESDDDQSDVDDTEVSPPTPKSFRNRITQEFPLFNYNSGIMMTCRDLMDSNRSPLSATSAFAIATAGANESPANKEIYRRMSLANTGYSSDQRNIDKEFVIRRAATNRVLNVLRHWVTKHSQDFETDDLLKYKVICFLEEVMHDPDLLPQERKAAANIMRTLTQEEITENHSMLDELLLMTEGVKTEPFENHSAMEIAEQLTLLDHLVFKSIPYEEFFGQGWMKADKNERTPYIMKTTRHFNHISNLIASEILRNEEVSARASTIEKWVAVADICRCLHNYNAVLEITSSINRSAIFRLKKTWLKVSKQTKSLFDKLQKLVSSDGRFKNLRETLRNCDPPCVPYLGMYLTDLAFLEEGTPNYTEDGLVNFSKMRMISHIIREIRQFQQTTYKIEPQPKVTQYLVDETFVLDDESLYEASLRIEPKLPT
# Method: Transfected cells were solubilized in lysis buffer (100 mM Tris-Cl [pH 8.5], 500 mM NaCl, 1% Triton X-100) supplemented with corn plete protease inhibitor (Roche) and immunoprecipitated with NR2B (Santa Cruz, sc-9057), NR1, or NR2A (Chemicon) antibody (5 μg/ml), washed with lysis buffer, separated on SDS gel, and blotted on PVDF. Blots were probed with anti-RasGRF1 (Santa Cruz) and the appropriate NR subunit antibody. 6- to 8-week-old rat brain P2 microsomes were isolated and solubilized as described (Luo, J., et al. (1997) Mol. Pharmacol. 51, 79-86). 80 μg of solubilized protein were immunoprecipitated with NR2B, RasGRF1, or pooled rabbit IgG, and immunoprecipitated proteins were probed on Western blot with RasGRF1 and NR2B antibodies. All immunoprecipitation experiments were only taken as valid if repeated 3-5 times with similar results. Routine negative controls with antigen pre-absorption were carried out for antibodies used in immunoprecipitation experiments. […]
# For in vitro binding experiments, equimolar amounts of in vitro translated ^35S-labeled proteins (calculated from radioactivity of the excised protein band and cysteine content in the specific fragment) were incubated with a 3-fold molar excess of translated RasGRF1 for 30 min at 30° C., diluted with RIPA buffer, and immunoprecipitated with anti-HA-agarose (Santa Cruz). […]
# ERK = assay: phospho-ERK immunocytochemistry in cultured hippocampal neurons; type: cell-based, rat; conditions: cultured hippocampal neurons
# Method: Neurons from 18 day rat embryos were dissociated using trypsin and plated on coverslips coated with poly-L-ysine in minimal essential medium (MEM) with 10% NU serum (BD Biosciences, Le Pont de Claix, France) at densities of 30,000 cells/cm^2 as described (Brewer, G. J. (1995) J. Neurosci. Res. 42, 674-683). On days 7 and 11 of culture incubation, half of the medium was changed to MEM with 2% B27 supplement (Invitrogen).
# Cells were transfected with cDNA for EGFP fusion proteins (LipofectAMINE 2000; Invitrogen) or by pseudoviral infection using a Sindbis expression system (Invitrogen). Neurons were incubated with cDNA and LipofectAMINE for 2 hr, rinsed, and incubated with culture media (MEM with 2% of B27 supplement) 17 hr prior to the experiment. For viral delivery, neuronal cultures were incubated 30 min with pseudoviral constructs diluted 200-500× in culture media. Cultures were rinsed and incubated in media for 15 hr. 0.1% to 1.5% of neurons were fluorescent after expressing LipofectAMINE-delivered constructs while Sindbis infection yielded 1%-10% transfection efficiency. Most of the experiments were performed on 12-14 days in vitro (div) cultures unless otherwise indicated.
# Three hours before stimulation, TTX (1 μM), CNQX (40 μM), APV (100 μM), and nimodipine (5 μM) were added to neurons. For stimulation, coverslips with neurons were transferred into the following solutions.
# (1) 100 μM NMDA, 10 μM glycine, 1 μM TTX, 40 μM CNQX, 5 μM nimodipine dissolved in culture media and incubated for 3 min. […]
# After stimulation, neurons were fixed with 4% formaldehyde and labeled with rabbit anti-phospho-p44/42 ERK antibody (Cell Signaling) and with mouse anti-MAP2 antibody (Sternberger Monoclonals). Cy3-conjugated goat anti-rabbit IgG and Cy5-conjugated goat antimouse IgG (Jackson Immunoresearch Laboratories, West Grove, Pa.) were secondary antibodies. NMDA and all antagonists were from Tocris Neuramin. BDNF was from Calbiochem. Images were acquired with an Olympus Fluoview-500 confocal microscope (40×; 1.0 NA) and quantified using Olympus Fluoview software. In each experiment, the pERK fluorescence of the cell soma was measured for 25 neurons taken from consecutive fields. Phospho-ERK fluorescence data were normalized to the values obtained in nontransfected cells after NMDA stimulation. The background fluorescence (mean fluorescence of nonstimulated neurons) was subtracted prior to normalization.
# NMDA receptor = assay: evoked NMDA EPSCs in organotypic cultures of hippocampal slices; type: cell-based, rat
# Method: Organotypic cultures of hippocampal slices were prepared as described (Becq, H., et al. (1999) J. Neurosci. Res. 58, 553-566) according to modified technique of Stoppini et al. (J. Neurosci. Methods 37, 173-182 (1991)). Hippocampal slices (400 μm) were cut from postnatal 7-day-old rat brains and incubated in culture medium in 5% CO2. Infections were performed on the 6th day of slice incubation by local pressure injection of virus via a patch pipette (tip diameter ˜1 μm) into the CA1 region of the hippocampus.
# For electrophysiological recordings, slices were placed in a recording chamber and perfused with ACSF including in mM: 119 NaCl, 2.5 KCl, 2 CaCl2, 2 MgCl2, 26 NaHCO3, 1 NaH2PO4, 11 glucose, 0.01 bicuculline, 0.01 CNQX, 0.002 2-chloroadenosine (pH 7.4), in 5% CO2/95% O2. Synaptic responses were evoked by bipolar electrode with monophasic voltage pulses (1-10 V, 200 μs). The stimulating electrodes were placed over Schaeffer collateral fibers. NMDA evoked EPSCs were recorded at different holding potentials before, during, and after ifenprodil application in order to measure the I-V relationship. For analysis, at least 5 NMDA-evoked EPSCs were averaged for every experimental condition.
molecule,measurement,setting,value
"NR2B-BD: peptide of amino acids 886-1310 of the NR2B C-terminal domain that binds RasGRF1; used as NusA or EGFP fusion (protein, left off: small tags and cut ends, used as NusA or EGFP fusion) SPTATMNNTHSNILRLLRTAKNMANLSGVNGSPQSALDFIRRESSVYDISEHRRSFTHSDCKSYNNPPCEENLFSDYISEVERTFGNLQLKDSNVYQDHYHHHHRPHSIGSTSSIDGLYDCDNPPFTTQPRSISKKPLDIGLPSSKHSQLSDLYGKFSFKSDRYSGHDDLIRSDVSDISTHTVTYGNIEGNAAKRRKQQYKDSLKKRPASAKSRREFDEIELAYRRRPPRSPDHKRYFRDKEGLRDFYLDQFRTKENSPHWEHVDLTDIYKERSDDFKRDSVSGGGPCTNRSHLKHGTGEKHGVVGGVPAPWEKNLTNVDWEDRSGGNFCRSCPSKLHNYSSTVAGQNSGRQACIRCEACKKAGNLYDISKDNSLQELDQPAAPVAVTSNASSTKYPQSPTNSKAQKKNRNKLRRQHSYDTFVDL",co-immunoprecipitation of NR2B and RasGRF1,[1],completely blocked
same,BDNF-induced ERK activation,ERK; 100 ng/ml BDNF,had no effect
same,NMDA-induced (NMDAR-dependent) ERK activation,ERK; 100 μM NMDA,inhibit
same,depolarization-induced ERK activation,ERK; 50 mM KCl,had no effect
same,portion of the ifenprodil-sensitive component of the evoked EPSCs,NMDA receptor,Neither of the expressed peptides decreased
